Measurements taken from patent publication US20230340151A1 (Pfizer, published 2023).

What was measured:
[1] = molecular target: T1, CID1877 (human-chicken GUCY2c chimera) (human/chicken); test: flow cytometry on cells displaying the construct
T1 chain: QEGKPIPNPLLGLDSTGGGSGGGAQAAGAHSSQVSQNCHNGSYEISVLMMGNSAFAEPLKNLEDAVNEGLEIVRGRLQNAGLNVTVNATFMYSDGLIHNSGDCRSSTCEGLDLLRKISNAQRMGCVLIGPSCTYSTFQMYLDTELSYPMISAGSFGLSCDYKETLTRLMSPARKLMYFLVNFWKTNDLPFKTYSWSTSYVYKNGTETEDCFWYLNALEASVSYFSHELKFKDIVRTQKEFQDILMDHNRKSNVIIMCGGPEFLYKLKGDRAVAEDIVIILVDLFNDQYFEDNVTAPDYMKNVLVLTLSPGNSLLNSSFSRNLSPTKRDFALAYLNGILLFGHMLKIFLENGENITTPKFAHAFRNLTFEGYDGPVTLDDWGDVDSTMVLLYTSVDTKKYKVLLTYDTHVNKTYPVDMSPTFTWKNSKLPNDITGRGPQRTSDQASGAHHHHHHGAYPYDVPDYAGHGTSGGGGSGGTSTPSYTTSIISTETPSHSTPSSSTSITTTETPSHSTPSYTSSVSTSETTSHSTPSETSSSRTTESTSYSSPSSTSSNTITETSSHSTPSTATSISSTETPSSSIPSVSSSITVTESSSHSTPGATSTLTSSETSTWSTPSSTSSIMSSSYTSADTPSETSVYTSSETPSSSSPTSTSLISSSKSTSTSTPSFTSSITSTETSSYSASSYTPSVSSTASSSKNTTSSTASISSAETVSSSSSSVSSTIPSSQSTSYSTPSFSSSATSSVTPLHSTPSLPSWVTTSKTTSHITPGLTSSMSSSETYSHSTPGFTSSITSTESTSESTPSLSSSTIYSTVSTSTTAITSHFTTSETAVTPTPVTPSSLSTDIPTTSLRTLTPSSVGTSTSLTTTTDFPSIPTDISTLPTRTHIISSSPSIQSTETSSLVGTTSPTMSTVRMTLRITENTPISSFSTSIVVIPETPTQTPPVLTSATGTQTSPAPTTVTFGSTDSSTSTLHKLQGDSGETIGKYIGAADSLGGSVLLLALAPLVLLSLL
Source text: (§1) Cells were then washed three times with PBS+0.5% BSA buffer. […] Cells were washed three times with PBS+0.5% BSA buffer and then analyzed on a flow cytometer.
(§2) MFI (median fluorescence intensity) of anti-GUCY2c antibody binding to the cells was normalized to expression on cell surface measured by MFI of anti-tag antibodies. All the cells expressed V5 and HA on the cell surface for expression normalization.

[2] = molecular target: T2, CID1879 (human-chicken GUCY2c chimera) (human/chicken); test: flow cytometry on cells displaying the construct
T2 chain: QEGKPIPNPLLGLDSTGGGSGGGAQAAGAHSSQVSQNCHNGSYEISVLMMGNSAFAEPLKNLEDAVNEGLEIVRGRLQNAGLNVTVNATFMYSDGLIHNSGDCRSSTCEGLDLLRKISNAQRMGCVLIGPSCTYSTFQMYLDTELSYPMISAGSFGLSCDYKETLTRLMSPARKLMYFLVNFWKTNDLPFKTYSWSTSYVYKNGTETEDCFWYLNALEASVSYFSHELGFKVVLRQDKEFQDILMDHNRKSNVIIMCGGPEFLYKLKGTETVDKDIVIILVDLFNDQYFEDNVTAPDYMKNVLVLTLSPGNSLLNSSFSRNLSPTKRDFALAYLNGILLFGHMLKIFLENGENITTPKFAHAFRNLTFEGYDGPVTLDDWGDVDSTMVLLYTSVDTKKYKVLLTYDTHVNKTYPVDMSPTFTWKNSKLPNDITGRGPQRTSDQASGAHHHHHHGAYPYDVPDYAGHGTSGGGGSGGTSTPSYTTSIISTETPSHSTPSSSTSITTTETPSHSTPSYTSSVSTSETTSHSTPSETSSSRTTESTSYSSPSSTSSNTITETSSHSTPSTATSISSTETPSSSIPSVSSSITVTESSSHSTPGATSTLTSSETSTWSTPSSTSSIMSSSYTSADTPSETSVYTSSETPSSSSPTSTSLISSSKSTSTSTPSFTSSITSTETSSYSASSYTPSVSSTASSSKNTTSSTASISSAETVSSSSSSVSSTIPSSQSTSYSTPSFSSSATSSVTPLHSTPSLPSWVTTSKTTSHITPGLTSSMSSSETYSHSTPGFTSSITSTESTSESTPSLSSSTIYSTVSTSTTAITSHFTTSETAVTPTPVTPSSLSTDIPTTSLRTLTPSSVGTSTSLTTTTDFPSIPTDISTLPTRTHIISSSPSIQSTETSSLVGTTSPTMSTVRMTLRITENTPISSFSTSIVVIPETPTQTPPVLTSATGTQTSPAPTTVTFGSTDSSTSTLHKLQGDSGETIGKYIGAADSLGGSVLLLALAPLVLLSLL
Source text: as §1, §2

[3] = molecular target: T3, Cynomolgus GUCY2C-ECD Cleaved (cynomolgus, UniProt P25092 24-430 (human entry)); test: SPR, GUCY2c directly immobilized, 25 C
T3 construct: also called CyGUCY2C
T3 chain: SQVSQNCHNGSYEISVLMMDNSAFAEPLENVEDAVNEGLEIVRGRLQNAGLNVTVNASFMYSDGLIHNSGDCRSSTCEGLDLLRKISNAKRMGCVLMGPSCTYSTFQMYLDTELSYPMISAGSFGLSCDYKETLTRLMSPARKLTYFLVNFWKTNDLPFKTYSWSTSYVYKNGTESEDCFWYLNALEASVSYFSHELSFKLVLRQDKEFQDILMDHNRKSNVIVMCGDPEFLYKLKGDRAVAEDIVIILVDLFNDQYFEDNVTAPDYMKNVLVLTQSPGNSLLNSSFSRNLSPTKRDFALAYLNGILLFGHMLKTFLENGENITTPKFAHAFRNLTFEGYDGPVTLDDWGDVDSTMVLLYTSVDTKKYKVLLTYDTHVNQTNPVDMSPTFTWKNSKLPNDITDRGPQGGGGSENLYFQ
Procedure: Human GUCY2c, cyno GUCY2c and mouse GUCY2c were directly immobilized onto three different flow cells of a CM5 Sensor Chip (BR100530, GE Healthcare) surface using an amine coupling kit (BR100050, GE Healthcare) according to the manufacturer's protocol. […] Flow cell 1 was used as a reference flow cell. […] The dissociation was monitored for 400 seconds and the surface was regenerated with 10 mM Glycine pH 2.1. The running and sample buffer was 10 mM HEPES pH 7.4, 0.15 M NaCl, 3 mM EDTA, 0.05% P-20 (HBS-EP+). The data were double referenced. Binding affinities and rate constants were determined by fitting the resulting sensorgram data to a 1:1 Langmuir model in BIACORE™ T200 Evaluation software version 3.0 (GE Healthcare).

GUCY2C_ECD Peptide 47 = molecular target: T4, GUCY2C_ECD Peptide 47 (human); test: peptide DELFIA ELISA;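 further: epitope mapping using overlapping 20-mer GUCY2C peptides covering residues 1-440, extracellular into transmembrane domain, coated at 20 µg/ml as target antigen and probed with antibodies or GUCY2C-CD3 bispecifics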
T4 peptide: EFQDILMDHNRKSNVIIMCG
Procedure: (§3) Arrays were reconstituted with acetonitrile to 100 μg/ml and were then further diluted to 20 μg/ml with sodium carbonate/bicarbonate buffer. Purified antibodies or GUCY2c-CD3 bispecifics were then tested by Delfia ELISA for binding to the different peptides using Delfia ELISA methods previously discussed, with diluted peptides used as the target antigen.

GUCY2C_ECD Peptide 1 = molecular target: T5, GUCY2C_ECD Peptide 1 (human); test: peptide DELFIA ELISA;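 further: epitope mapping using overlapping 20-mer GUCY2C peptides covering residues 1-440, extracellular into transmembrane domain, coated at 20 µg/ml as target antigen and probed with antibodies or GUCY2C-CD3 bispecifics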
T5 peptide: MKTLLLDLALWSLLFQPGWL
Procedure: as §3

GUCY2C_ECD Peptide 39 = molecular target: T6, GUCY2C_ECD Peptide 39 (human); test: peptide DELFIA ELISA;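 further: epitope mapping using overlapping 20-mer GUCY2C peptides covering residues 1-440, extracellular into transmembrane domain, coated at 20 µg/ml as target antigen and probed with antibodies or GUCY2C-CD3 bispecifics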
T6 peptide: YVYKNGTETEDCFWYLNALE
Procedure: as §3

GUCY2C_ECD Peptide 68 = molecular target: T7, GUCY2C_ECD Peptide 68 (human); test: peptide DELFIA ELISA;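 further: epitope mapping using overlapping 20-mer GUCY2C peptides covering residues 1-440, extracellular into transmembrane domain, coated at 20 µg/ml as target antigen and probed with antibodies or GUCY2C-CD3 bispecifics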
T7 peptide: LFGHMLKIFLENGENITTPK
Procedure: as §3

GUCY2C_ECD Peptide 38 = molecular target: T8, GUCY2C_ECD Peptide 38 (human); test: peptide DELFIA ELISA
T8 peptide: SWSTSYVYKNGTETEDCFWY
Procedure: as §3

GUCY2C_ECD Peptide 69 = molecular target: T9, GUCY2C_ECD Peptide 69 (human); test: peptide DELFIA ELISA
T9 peptide: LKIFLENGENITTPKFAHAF
Procedure: as §3

B1: GUCY2C-1608 (bispecific antibody)
chain 1: DIQLTQSPSSLSASVGDRVTITCRASESVDYYGSSLLQWYQQKPGKAPKLLIYAASKLASGVPSRFSGSGSGTDFTLTISSLQPEDFATYYCQQTRKAYTFGQGTKLEIKGGGSGGGGEVQLVESGGGLVQPGGSLRLSCAASGFTFSDYYMTWVRQAPGKGLEWVAFIRNQARGYTSDHNPSVKGRFTISRDNAKNSLYLQMNSLRAEDTAVYYCARDRPSYYVLDYWGQGTTVTVSSGCPPCPAPEAAGAPSVFLFPPKPKDTLMISRTPEVTCVVVDVSHEDPEVKFNWYVDGVEVHNAKTKPREEQYNSTYRVVSVLTVLHQDWLNGKEYKCKVSNKALPAPIEKTISKAKGQPREPQVCTLPPSREEMTKNQVSLWCLVKGFYPSDIAVEWESNGQPENNYKTTPPVLDSDGSFFLYSKLTVDKSRWQQGNVFSCSVMHEALHNHYTQKSLSLSPG
chain 2: DIQMTQSPSSLSASVGDRVTITCTSSQSLFNVRSQKNYLAWYQQKPGKAPKLLIYWASTRESGVPSRFSGSGSGTDFTLTISSLQPEDFATYYCKQSYDLFTFGGGTKVEIKGGGGSGGGGEVQLVESGGGLVQPGGSLRLSCAASGFTFSSYWMHWVRQAPGKGLEWIGEIKPSNELTNVHEKFKDRFTISVDKAKNSAYLQMNSLRAEDTAVYYCTRTITTTEGYWFFDVWGQGTLVTVSSGCPPCPAPEAAGAPSVFLFPPKPKDTLMISRTPEVTCVVVDVSHEDPEVKFNWYVDGVEVHNAKTKPREEQYNSTYRVVSVLTVLHQDWLNGKEYKCKVSNKALPAPIEKTISKAKGQPREPQVYTLPPCREEMTKNQVSLSCAVKGFYPSDIAVEWESNGQPENNYKTTPPVLDSDGSFFLVSKLTVDKSRWQQGNVFSCSVMHEALHNHYTQKSLSLSPG
notes: also called GUCY2c CD3 bispecific
[1]
  binding result: binds
[2]
  binding result: binds
[3]
  Kd: 3.01 nM
  koff: 0.000417 s⁻¹
  kon: 138000 M⁻¹ s⁻¹
GUCY2C_ECD Peptide 47
  DELFIA TRF: 104
GUCY2C_ECD Peptide 1
  DELFIA TRF: 166
GUCY2C_ECD Peptide 39
  DELFIA TRF: 86.5
GUCY2C_ECD Peptide 68
  DELFIA TRF: 73.5
GUCY2C_ECD Peptide 38
  DELFIA TRF: 110
GUCY2C_ECD Peptide 69
  DELFIA TRF: 100
